B1: HDV Ribozyme (parent)
chain: GGCCGGCAUGGUCCCAGCCUCCUCGCUGGCGCCGGCUGGGCAACAUUCCGAGGGGACCGUCCCCUCGGUAAUGGCGAAUGGGACCCA

Variants of: B1
Experiment: self-cleavage, relative activity (ratio to wild type); higher = more cleavage; co-transcriptional
GGCCGGCAUGGUCCCAGCCUCCUCGCUGGCGCAGGCUGGGCAACAUUCCGAGGGGACCGUCCCCUCGGUACUGGCGAAUGGGACCCA [C33A A71C] gave a self-cleavage of 0.248.
Work on GGCCGGCAUGGUCCCAGCCUCCUCGCUGGCGGCGGCUGGGCAACAGUCCGAGGGGACCGUCCCCUCGGUAAUGGCGAAUGGGACCCA [C32G U46G] yielded a self-cleavage of 0.
Variant GGCCGGCAUGGUCCCAGCCUCCUCGCUGGCGUCGGCUGGGCAACAUUCCGAGGGGACGGUCCCCUCGGUAAUGGCGAAUGGGACCCA [C32U C58G] has a self-cleavage of 0.646.
Variant GGCCGGCAUGGUCCCAGCCUCCUCGCUGGCGUCGGCUGGGCAACAUUCCGUGGGGACCGUCCCCUCGGUAAUGGCGAAUGGGACCCA [C32U A51U] has a self-cleavage of 0.884.
Variant GGCCGGCAUGGUCCCAGCCUCCUCGCUGGCGCAGGCUGGGCAACAUUCCGAGGGGACCGUCCCCUCGGUUAUGGCGAAUGGGACCCA [C33A A70U] has a self-cleavage of 0.458.
With GGCCGGCAUGGUCCCAGCCUCCUCGCUGGCGCAGGCUGGGCAACAUUCCGAGGGGACCGUCCCCUCGGUCAUGGCGAAUGGGACCCA [C33A A70C] the self-cleavage was 0.17.
In the case of GGCCGGCAUGGUCCCAGCCUCCUCGCUGGCGCAGGCUGGGCAACAUUCCGAGGGGACCGUCCCCUCGGUGAUGGCGAAUGGGACCCA [C33A A70G], the self-cleavage is reported as 0.198.
With GGCCGGCAUGGUCCCAGCCUCCUCGCUGGCGUCGGCUGCGCAACAUUCCGAGGGGACCGUCCCCUCGGUAAUGGCGAAUGGGACCCA [C32U G39C] the self-cleavage was 0.122.
Variant GGCCGGCAUGGUCCCAGCCUCCUCGCUGGCGCAGGCUGGGCAACAUUCCGAGGGGACCGUCCCCUCGGUAAUGGCGAAUGGGCCCCA [C33A A83C] has a self-cleavage of 0.0449.
GGCCGGCAUGGUCCCAGCCUCCUCGCUGGCGCAGGCUGGGCAAGAUUCCGAGGGGACCGUCCCCUCGGUAAUGGCGAAUGGGACCCA [C33A C44G] gave a self-cleavage of 0.0475.
Work on GGCCGGCAUGGUCCCAGCCUCCUCGCUGGCGCAGGCUGGGCAAAAUUCCGAGGGGACCGUCCCCUCGGUAAUGGCGAAUGGGACCCA [C33A C44A] yielded a self-cleavage of 0.
GGCCGGCAUGGUCCCAGCCUCCUCGCUGGCGCAGGCUGGGCAACAUUCCGAGGGGACCGUCCCCUCGGUAAUGGCGAUUGGGACCCA [C33A A78U] showed a self-cleavage of 0.108.
Work on GGCCGGCAUGGUCCCAGCCUCCUCGCUGGCGUCGGCUGGGCAACAUACCGAGGGGACCGUCCCCUCGGUAAUGGCGAAUGGGACCCA [C32U U47A] yielded a self-cleavage of 0.943.
For GGCCGGCAUGGUCCCAGCCUCCUCGCUGGCGUCGGCUGGGCAACAUGCCGAGGGGACCGUCCCCUCGGUAAUGGCGAAUGGGACCCA [C32U U47G], the self-cleavage was 1.03.
Work on GGCCGGCAUGGUCCCAGCCUCCUCGCUGGCGGCGGCUGGGCAACAUUCCGAGGGGACCGCCCCCUCGGUAAUGGCGAAUGGGACCCA [C32G U60C] yielded a self-cleavage of 0.0723.
With GGCCGGCAUGGUCCCAGCCUCCUCGCUGGCGUCGGCUGGGCAACAUUCGGAGGGGACCGUCCCCUCGGUAAUGGCGAAUGGGACCCA [C32U C49G] the self-cleavage was 0.743.
Work on GGCCGGCAUGGUCCCAGCCUCCUCGCUGGCGUCGGCUCGGCAACAUUCCGAGGGGACCGUCCCCUCGGUAAUGGCGAAUGGGACCCA [C32U G38C] yielded a self-cleavage of 0.233.
For GGCCGGCAUGGUCCCAGCCUCCUCGCUGGCGGCGGCUGGGCAACAUUCCGAGGGGACCGUCCCCCCGGUAAUGGCGAAUGGGACCCA [C32G U65C], the self-cleavage was 0.135.
With GGCCGGCAUGGUCCCAGCCUCCUCGCUGGCGCAGGCUGGGGAACAUUCCGAGGGGACCGUCCCCUCGGUAAUGGCGAAUGGGACCCA [C33A C41G] the self-cleavage was 0.104.
Variant GGCCGGCAUGGUCCCAGCCUCCUCGCUGGCGCAGGCUGGGAAACAUUCCGAGGGGACCGUCCCCUCGGUAAUGGCGAAUGGGACCCA [C33A C41A] has a self-cleavage of 0.0845.
Work on GGCCGGCAUGGUCCCAGCCUCCUCGCUGGCGUCGGCUGGGCAACAUUCCGAGGGGACCGUCCCCUCGGUAAUGGCGUAUGGGACCCA [C32U A77U] yielded a self-cleavage of 0.496.
Work on GGCCGGCAUGGUCCCAGCCUCCUCGCUGGCGUCGGCUGGGCGACAUUCCGAGGGGACCGUCCCCUCGGUAAUGGCGAAUGGGACCCA [C32U A42G] yielded a self-cleavage of 0.244.
GGCCGGCAUGGUCCCAGCCUCCUCGCUGGCGUCGGCUGGGCUACAUUCCGAGGGGACCGUCCCCUCGGUAAUGGCGAAUGGGACCCA [C32U A42U] showed a self-cleavage of 0.591.
GGCCGGCAUGGUCCCAGCCUCCUCGCUGGCGCAGGCUGGGCAACAUUCCGCGGGGACCGUCCCCUCGGUAAUGGCGAAUGGGACCCA [C33A A51C] gave a self-cleavage of 0.147.
In the case of GGCCGGCAUGGUCCCAGCCUCCUCGCUGGCGUCGGCUGGGCAACAUUCCGAGGGGACCGUCCCCUCGGGAAUGGCGAAUGGGACCCA [C32U U69G], the self-cleavage is reported as 0.852.
For GGCCGGCAUGGUCCCAGCCUCCUCGCUGGCGCAGGAUGGGCAACAUUCCGAGGGGACCGUCCCCUCGGUAAUGGCGAAUGGGACCCA [C33A C36A], the self-cleavage was 0.213.
GGCCGGCAUGGUCCCAGCCUCCUCGCUGGCGGCGGCUGGGCAACAUGCCGAGGGGACCGUCCCCUCGGUAAUGGCGAAUGGGACCCA [C32G U47G] gave a self-cleavage of 0.0594.
For GGCCGGCAUGGUCCCAGCCUCCUCGCUGGCGUCGGCUGGGCAACAUUCCGAGGGGACCGUCCCCUCGGUAAUGGCCAAUGGGACCCA [C32U G76C], the self-cleavage was 0.854.
GGCCGGCAUGGUCCCAGCCUCCUCGCUGGCGUCGGCUGGGCAACAUUCCGAGGGGACCGUCCCCUCGGUAAUGGCAAAUGGGACCCA [C32U G76A] gave a self-cleavage of 0.946.
GGCCGGCAUGGUCCCAGCCUCCUCGCUGGCGUCGGCUGGGCAACAUUCCGAGGGGACCGUCCCCUCGGUAAUGGCUAAUGGGACCCA [C32U G76U] showed a self-cleavage of 0.751.
With GGCCGGCAUGGUCCCAGCCUCCUCGCUGGCGUCGGCUGGGCAACAUUCCGAGGGGACCGGCCCCUCGGUAAUGGCGAAUGGGACCCA [C32U U60G] the self-cleavage was 1.02.
GGCCGGCAUGGUCCCAGCCUCCUCGCUGGCGUCGGCUGGGCAACAUUCCGAGGGGACCGUCCCCUCGGUAAUGGCGAAUGGGACCGA [C32U C86G] gave a self-cleavage of 0.739.

Reference: the RNAGym collection of RNA variant scans (doi:10.7554/elife.80360)
